According to article PMC12756002 (2025):

B1: Sis1-WT [yeast] / Ssa1-WT [yeast] (parent complex)
chain 1: MVKETKLYDLLGVSPSANEQELKKGYRKAALKYHPDKPTGDTEKFKEISEAFEILNDPQKREIYDQYGLEAARSGGPSFGPGGPGGAGGAGGFPGGAGGFSGGHAFSNEDAFNIFSQFFGGSSPFGGADDSGFSFSSYPSGGGAGMGGMPGGMGGMHGGMGGMPGGFRSASSSPTYPEEETVQVNLPVSLEDLFVGKKKSFKIGRKGPHGASEKTQIDIQLKPGWKAGTKITYKNQGDYNPQTGRRKTLQFVIQEKSHPNFKRDGDDLIYTLPLSFKESLLGFSKTIQTIDGRTLPLSRVQPVQPSQTSTYPGQGMPTPKNPSQRGNLIVKYKVDYPISLNDAQKRAIDENF
chain 2: not shown
B2: Sis1-WT [yeast] / full-length Rnq1 [yeast] (parent complex)
chain 1: B1 chain 1
chain 2: MDTDKLISEAESHFSQGNHAEAVAKLTSAAQSNPNDEQMSTIESLIQKIAGYVMDNRSGGSDASQDRAAGGGSSFMNTLMADSKGSSQTQLGKLALLATVMTHSSNKGSSNRGFDVGTVMSMLSGSGGGSQSMGASGLAALASQFFKSGNNSQGQGQGQGQGQGQGQGQGQGSFTALASLASSFMNSNNNNQQGQNQSSGGSSFGALASMASSFMHSNNNQNSNNSQQGYNQSYQNGNQNSQGYNNQQYQGGNGGYQQQQGQSGGAFSSLASMAQSYLGGGQTQSNQQQYNQQGQNNQQQYQQQGQNYQHQQQGQQQQQGHSSSFSALASMASSYLGNNSNSNSSYGGQQQANEYGRPQQNGQQQSNEYGRPQYGGNQNSNGQHESFNFSGNFSQQNNNGNQNRY
B3: Ssa1-WT [yeast] / Sis1-FLRnq1 complex (Sis1-WT premixed with denatured Rnq1) [yeast] (parent complex)
chain 1: not shown
chain 2: B1 chain 1
chain 3: B2 chain 2

Variants of: B1
Experiment: ELISA; Ssa1 (200 nM) immobilized; Sis1 at 20 nM; detection with αSis1 antibody; parent: 130; read off a plot

Variant	response
chain 1 E53K	~97 Abs 450nm
chain 1 E53A	~78 Abs 450nm
chain 1 N56L	~75 Abs 450nm
chain 1 S49V	~82 Abs 450nm

Variants of: B2
Experiment: ELISA; 400 ng denatured FL Rnq1 immobilized; Sis1 at 20 nM; detection with Sis1-specific antibody; parent: 240; read off a plot

Variant	response
chain 1 MVKETKLYDLLGVSPSANEQELKKGYRKAALKYHPDKPTGDTEKFKEISEAFAILNDPQKREIYDQYGLEAARSGGPSFGPGGPGGAGGAGGFPGGAGGFSGGHAFSNEDAFNIFSQFFGGSSPFGGADDSGFSFSSYPSGGGAGMGGMPGGMGGMHGGMGGMPGGFRSASSSPTYPEEETVQVNLPVSLEDLFVGKKKSFKIGRKGPHGASEKTQIDIQLKPGWKAGTKITYKNQGDYNPQTGRRKTLQFVIQEKSHPNFKRDGDDLIYTLPLSFKESLLGFSKTIQTIDGRTLPLSRVQPVQPSQTSTYPGQGMPTPKNPSQRGNLIVKYKVDYPISLNDAQKRAIDENF [chain 1 E53A]	~79 Abs 450nm
chain 1 MVKETKLYDLLGVSPSANEQELKKGYRKAALKYHPDKPTGDTEKFKEISEAFKILNDPQKREIYDQYGLEAARSGGPSFGPGGPGGAGGAGGFPGGAGGFSGGHAFSNEDAFNIFSQFFGGSSPFGGADDSGFSFSSYPSGGGAGMGGMPGGMGGMHGGMGGMPGGFRSASSSPTYPEEETVQVNLPVSLEDLFVGKKKSFKIGRKGPHGASEKTQIDIQLKPGWKAGTKITYKNQGDYNPQTGRRKTLQFVIQEKSHPNFKRDGDDLIYTLPLSFKESLLGFSKTIQTIDGRTLPLSRVQPVQPSQTSTYPGQGMPTPKNPSQRGNLIVKYKVDYPISLNDAQKRAIDENF [chain 1 E53K]	~140 Abs 450nm
chain 1 MVKETKLYDLLGVSPSANEQELKKGYRKAALKYHPDKPTGDTEKFKEISEAFEILLDPQKREIYDQYGLEAARSGGPSFGPGGPGGAGGAGGFPGGAGGFSGGHAFSNEDAFNIFSQFFGGSSPFGGADDSGFSFSSYPSGGGAGMGGMPGGMGGMHGGMGGMPGGFRSASSSPTYPEEETVQVNLPVSLEDLFVGKKKSFKIGRKGPHGASEKTQIDIQLKPGWKAGTKITYKNQGDYNPQTGRRKTLQFVIQEKSHPNFKRDGDDLIYTLPLSFKESLLGFSKTIQTIDGRTLPLSRVQPVQPSQTSTYPGQGMPTPKNPSQRGNLIVKYKVDYPISLNDAQKRAIDENF [chain 1 N56L]	~60 Abs 450nm
chain 1 MVKETKLYDLLGVSPSANEQELKKGYRKAALKYHPDKPTGDTEKFKEIVEAFEILNDPQKREIYDQYGLEAARSGGPSFGPGGPGGAGGAGGFPGGAGGFSGGHAFSNEDAFNIFSQFFGGSSPFGGADDSGFSFSSYPSGGGAGMGGMPGGMGGMHGGMGGMPGGFRSASSSPTYPEEETVQVNLPVSLEDLFVGKKKSFKIGRKGPHGASEKTQIDIQLKPGWKAGTKITYKNQGDYNPQTGRRKTLQFVIQEKSHPNFKRDGDDLIYTLPLSFKESLLGFSKTIQTIDGRTLPLSRVQPVQPSQTSTYPGQGMPTPKNPSQRGNLIVKYKVDYPISLNDAQKRAIDENF [chain 1 S49V]	~130 Abs 450nm

Variants of: B3
Experiment: ELISA; Denatured Rnq1 premixed with Sis1 and immobilized; Ssa1-WT at 20 nM; detection with αSsa1 antibody; parent: 230; read off a plot

Variant	response
chain 2 S49V	~170 Abs 450nm
chain 2 N56L	~89 Abs 450nm
chain 2 E53A	~120 Abs 450nm
chain 2 E53K	~110 Abs 450nm
